Reference: doi:10.1101/2020.02.13.946640 (bioRxiv, 2020)
Read-outs that look alike come from different tables or passages of the source. Values belong to the molecule of their own block, whether it stands above or below them.

B1: d subunit of Thermus thermophilus V/A-ATPase (natural protein, UniProt P74902 1-323, looked up)
chain: MADDFAYLNARVRVRRGTLLKESFFQEALDLSFADFLRLLSETVYGGELAGQGLPDVDRAVLRTQAKLVGDLPRLVTGEAREAVRLLLLRNDLHNLQALLRAKATGRPFEEVLLLPGTLREEVWRQAYEAQDPAGMAQVLAVPGHPLARALRAVLRETQDLARVEALLAKRFFEDVAKAAKGLDQPALRDYLALEVDAENLRTAFKLQGSGLAPDAFFLKGGRFVDRVRFARLMEGDYAVLDELSGTPFSGLSGVRDLKALERGLRCVLLKEAKKGVQDPLGVGLVLAYVKEREWEAVRLRLLARRAYFGLPRAQVEEEVVCP

What was measured:
Assay in all cases: cryo-EM structure
[1] = target: c subunit of Thermus thermophilus V/A-ATPase, His3-tagged (Thermus thermophilus) (UniProt Q5SIT7)
[2] = target: c subunit of Thermus thermophilus V/A-ATPase, His3-tagged (Thermus thermophilus) (UniProt Q5SIT7); remark: listed apart in the source
[3] = target: T1, a subunit of Thermus thermophilus V/A-ATPase (Thermus thermophilus, UniProt Q5SIT6 1-652)
T1 sequence (looked up): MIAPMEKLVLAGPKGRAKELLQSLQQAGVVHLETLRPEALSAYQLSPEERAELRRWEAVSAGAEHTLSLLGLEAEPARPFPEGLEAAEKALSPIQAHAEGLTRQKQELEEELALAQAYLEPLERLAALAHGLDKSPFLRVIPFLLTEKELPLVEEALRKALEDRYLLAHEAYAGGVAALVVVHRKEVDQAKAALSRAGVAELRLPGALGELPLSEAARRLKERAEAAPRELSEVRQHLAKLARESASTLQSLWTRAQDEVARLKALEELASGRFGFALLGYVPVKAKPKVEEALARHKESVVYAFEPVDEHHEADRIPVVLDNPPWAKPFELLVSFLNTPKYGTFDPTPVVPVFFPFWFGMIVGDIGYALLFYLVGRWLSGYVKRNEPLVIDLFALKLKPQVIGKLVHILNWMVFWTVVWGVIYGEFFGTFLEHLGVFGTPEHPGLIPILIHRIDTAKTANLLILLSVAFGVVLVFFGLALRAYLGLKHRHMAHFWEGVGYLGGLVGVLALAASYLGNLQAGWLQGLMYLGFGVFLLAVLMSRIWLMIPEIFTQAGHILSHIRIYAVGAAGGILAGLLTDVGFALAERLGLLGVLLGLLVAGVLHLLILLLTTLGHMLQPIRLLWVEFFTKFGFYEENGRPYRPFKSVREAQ

[4] = target: B1

stoichiometry N [1]: 12
stoichiometry N [2]: 12
Molecule: c subunit of Thermus thermophilus V/A-ATPase, His3-tagged (from UniProt Q5SIT7 1-99) (natural protein)

Molecule: B1
binding result [3]: binds

binding result [4]: binds
B2: D subunit of Thermus thermophilus V/A-ATPase (natural protein, UniProt O87880 1-223, looked up)
chain: MSQVSPTRMNLLQRRGQLRLAQKGVDLLKKKRDALVAEFFGLVREAMEARKALDQAAKEAYAALLLAQAFDGPEVVAGAALGVPPLEGVEAEVENVWGSKVPRLKATFPDGALLSPVGTPAYTLEASRAFRRYAEALIRVANTETRLKKIGEEIKKTTRRVNALEQVVIPGIRAQIRFIQQVLEQREREDTFRLKRIKGKIEAREAEEEGGRPNPQVEIGAGL
